# B1: scFv(FRP5)-DETA-DGAL4 protein (scFv)
# chain: DYKDDDDKLHHHHHHKLQVQLQQSGPELKKPGETVKISCKASGYPFTNYGMNWVKQAPGQGLKWMGWINTSTGESTFADDFKGRFDFSLETSANTAYLQINNLKSEDMATYFCARWEVYHGYVPYWGQGTTVTVSSGGGGSGGGGSGGGGSDIQLTQSHKFLSTSVGDRVSITCKASQDVYNAVAWYQQKPGQSPKLLIYSASSRYTGVPSRFTGSGSGPDFTFTISSVQAEDLAVYFCQQHFRTPFTFGSGTKLEIKALEGGSLAALTAHQACHLPLETFTRHRQPRGWEQLEQCGYPVQRLVALYLAARLSWNQVDQVIRNALASPGSGGDLGEAIREQPEQARLALTLAAAESERFVRQGTGNDEAGAANADEKLLSSIEQACDICRLKKLKCSKEKPKCAKCLKNNWECRYSPKTKRSPLTRAHLTEVESRLERLEQLFLLIFPREDLDMILKMDSLQDIKALLTGLFVQDNVNKDAVTDRLASVETDMPLTLRQHRISATSSSEESSNKGQRQLTVSSSDYKDEL
# Molecular target: p185 erbB-2 on SK-BR-3 human breast carcinoma cells (human, UniProt P04626 23-1255)
binder,measurement,value
B1,EC50,20 nM
